Experimental data from patent US20120213794A1 (published 2012).

How the values were obtained:
human PCSK9 [1] = biological target: T1, human PCSK9 (human, UniProt Q8NBP7 31-692); assay: cell-based or functional assay
T1 sequence (Q8NBP7 31-692 limits assumed): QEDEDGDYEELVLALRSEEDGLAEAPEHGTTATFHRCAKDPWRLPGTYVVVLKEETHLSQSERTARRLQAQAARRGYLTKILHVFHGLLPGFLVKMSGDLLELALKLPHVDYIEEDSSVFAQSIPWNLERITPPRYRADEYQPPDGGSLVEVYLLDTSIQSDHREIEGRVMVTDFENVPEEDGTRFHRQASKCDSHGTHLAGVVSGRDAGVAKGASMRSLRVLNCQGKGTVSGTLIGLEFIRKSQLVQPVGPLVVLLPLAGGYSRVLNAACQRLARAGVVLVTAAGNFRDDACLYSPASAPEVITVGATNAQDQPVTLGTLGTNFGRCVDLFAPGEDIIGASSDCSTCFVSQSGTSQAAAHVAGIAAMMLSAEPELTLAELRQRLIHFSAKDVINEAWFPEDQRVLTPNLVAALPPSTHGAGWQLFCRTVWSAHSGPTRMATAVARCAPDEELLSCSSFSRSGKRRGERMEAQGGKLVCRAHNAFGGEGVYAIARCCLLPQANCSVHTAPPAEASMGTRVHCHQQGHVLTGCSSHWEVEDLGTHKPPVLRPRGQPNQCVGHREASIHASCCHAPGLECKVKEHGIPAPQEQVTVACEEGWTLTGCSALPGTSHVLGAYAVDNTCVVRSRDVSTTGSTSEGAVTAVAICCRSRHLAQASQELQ

rhesus PCSK9 [2] = biological target: T2, rhesus PCSK9 (rhesus, UniProt A8T666 31-692, limits assumed); assay: cell-based or functional assay
murine PCSK9 [3] = biological target: T3, murine PCSK9 (mouse, UniProt Q80W65 35-694, limits assumed); assay: cell-based or functional assay
human PCSK9 [4] = biological target: T4, human PCSK9 (human, UniProt Q8NBP7 31-692); assay: Biacore (SPR), IgG2 captured, PCSK9 as analyte
T4 construct: also called hPCSK9
T4 sequence (Q8NBP7 31-692 limits assumed): as above

Rhesus PCSK9 [5] = biological target: T5, Rhesus PCSK9 (rhesus, UniProt A8T666 31-692, limits assumed); assay: Biacore (SPR), IgG2 captured, PCSK9 as analyte
T5 construct: also called rhPCSK9

Mouse PCSK9 = biological target: T6, Mouse PCSK9 (mouse, UniProt Q80W65 35-694, limits assumed); assay: Biacore (SPR), IgG2 captured, PCSK9 as analyte
T6 construct: Column head prints 'Mouse 9'; also called Mouse 9; mPCSK9

human PCSK9 [6] = biological target: T1, human PCSK9; assay: cell-based or functional assay; remark: listed apart in the source
murine PCSK9 [7] = biological target: T3, murine PCSK9; assay: cell-based or functional assay; remark: listed apart in the source
rhesus PCSK9 [8] = biological target: T2, rhesus PCSK9; assay: cell-based or functional assay; remark: listed apart in the source

T6 sequence (Q80W65 35-694 limits assumed): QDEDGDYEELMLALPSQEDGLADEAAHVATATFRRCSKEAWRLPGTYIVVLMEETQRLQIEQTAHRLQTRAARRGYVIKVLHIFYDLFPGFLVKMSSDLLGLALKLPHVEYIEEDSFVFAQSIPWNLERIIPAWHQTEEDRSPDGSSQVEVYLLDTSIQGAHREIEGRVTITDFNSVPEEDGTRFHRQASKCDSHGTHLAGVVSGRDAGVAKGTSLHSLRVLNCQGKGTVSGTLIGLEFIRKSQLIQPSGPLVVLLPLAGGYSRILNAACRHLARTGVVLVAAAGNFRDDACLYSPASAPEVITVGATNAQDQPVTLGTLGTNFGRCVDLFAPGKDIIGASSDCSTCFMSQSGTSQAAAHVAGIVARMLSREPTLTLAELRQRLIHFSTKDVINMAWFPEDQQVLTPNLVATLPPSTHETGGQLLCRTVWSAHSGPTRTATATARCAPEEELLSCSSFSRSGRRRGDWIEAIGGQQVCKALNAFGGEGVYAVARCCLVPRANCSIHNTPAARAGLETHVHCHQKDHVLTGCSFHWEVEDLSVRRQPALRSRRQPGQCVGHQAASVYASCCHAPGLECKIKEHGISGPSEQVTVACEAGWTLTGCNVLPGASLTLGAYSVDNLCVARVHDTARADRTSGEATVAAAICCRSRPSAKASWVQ
T3 sequence (Q80W65 35-694 limits assumed): as above
T2 sequence (A8T666 31-692 limits assumed): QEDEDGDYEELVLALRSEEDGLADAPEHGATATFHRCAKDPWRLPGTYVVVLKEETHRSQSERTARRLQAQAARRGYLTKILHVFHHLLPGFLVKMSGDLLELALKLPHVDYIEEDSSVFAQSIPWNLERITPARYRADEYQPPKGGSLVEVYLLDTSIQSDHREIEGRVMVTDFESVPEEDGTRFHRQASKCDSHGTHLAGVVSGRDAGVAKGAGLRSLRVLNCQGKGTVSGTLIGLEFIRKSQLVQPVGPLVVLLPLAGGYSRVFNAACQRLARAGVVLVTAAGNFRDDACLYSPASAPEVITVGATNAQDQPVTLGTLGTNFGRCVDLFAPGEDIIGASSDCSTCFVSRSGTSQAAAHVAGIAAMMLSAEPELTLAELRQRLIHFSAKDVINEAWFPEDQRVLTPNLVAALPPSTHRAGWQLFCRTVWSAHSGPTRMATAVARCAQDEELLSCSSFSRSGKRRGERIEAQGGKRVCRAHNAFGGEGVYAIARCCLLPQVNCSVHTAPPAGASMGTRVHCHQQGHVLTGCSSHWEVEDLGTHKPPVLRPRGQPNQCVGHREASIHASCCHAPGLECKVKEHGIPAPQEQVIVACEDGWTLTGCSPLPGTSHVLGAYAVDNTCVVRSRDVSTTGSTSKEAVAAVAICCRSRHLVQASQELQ
T5 sequence (A8T666 31-692 limits assumed): as above

| Binder | IgG2 IC50 (nM), inhibition of PCSK9 (LDL uptake assay) (human PCSK9 [1]) [nM] | IgG2 IC50 (nM), inhibition of PCSK9 (LDL uptake assay) (rhesus PCSK9 [2]) [nM] | IgG2 IC50 (nM), inhibition of PCSK9 (LDL uptake assay) (murine PCSK9 [3]) [nM] | Kd (human PCSK9 [4]) [nM] | Kd (Rhesus PCSK9 [5]) [nM] | Kd (Mouse PCSK9) [nM] | other results |
| --- | --- | --- | --- | --- | --- | --- | --- |
| AX114 IgG2 (antibody, V domains shown) VH: EVQLLESGGGLVQPGGSLRLSCKASGYTFSSYGMYWVRQAPGKGLEWIGWIDPGSGGTKYNEKFKGKATISRDNSKNTLYLQMNSLRAEDTAVYYCARERYGYYFDYWGQGTLVTVSS VL: EIVLTQSPATLSLSPGERATITCRASQYVGTYLNWYQQKPGQAPRLLIYDASNRATGIPARFSGSGSGTDFTLTISSLEPEDFAVYYCQVWDSSPPVAFGGGTKVEIK [AX114 IgG2, listing 1 of 2 here] |  |  |  | 24 | 11.6 | 11.2 |  |
| AX114 IgG2 (antibody, V domains shown) VH: EVQLLESGGGLVQPGGSLRLSCKASGYTFSSYGMYWVRQAPGKGLEWIGWIDPGSGGTKYNEKFKGKATISRDNSKNTLYLQMNSLRAEDTAVYYCARERYGYYFDYWGQGTLVTVSS VL: EIVLTQSPATLSLSPGERATITCRASQYVGTYLNWYQQKPGQAPRLLIYDASNRATGIPARFSGSGSGTDFTLTISSLEPEDFAVYYCQVWDSSPPVAFGGGTKVEIK [AX114 IgG2, listing 2 of 2 here] | 36.6 | 14.4 | 27.4 |  |  |  |  |
| AX132 IgG2 (antibody) heavy: EVQLLESGGGLVQPGGSLRLSCKASGYTFSSYGMYWVRQAPGKGLEWIGWIDPGSGGTKYNEKFKGKATISRDNSKNTLYLQMNSLRAEDTAVYYCARERYGYYFDYWGQGTLVTVSSASTKGPSVFPLAPCSRSTSESTAALGCLVKDYFPEPVTVSWNSGALTSGVHTFPAVLQSSGLYSLSSVVTVPSSNFGTQTYTCNVDHKPSNTKVDKTVERKCCVECPPCPAPPVAGPSVFLFPPKPKDTLMISRTPEVTCVVVDVSHEDPEVQFNWYVDGVEVHNAKTKPREEQFNSTFRVVSVLTVVHQDWLNGKEYKCKVSNKGLPAPIEKTISKTKGQPREPQVYTLPPSREEMTKNQVSLTCLVKGFYPSDIAVEWESNGQPENNYKTTPPMLDSDGSFFLYSKLTVDKSRWQQGNVFSCSVMHEALHNHYTQKSLSLSPGK VL: EIVLTQSPATLSLSPGERATITCRASQYVGSYLNWYQQKPGQAPRLLIYDASNRATGIPARFSGSGSGTDFTLTISSLEPEDFAVYYCQVWDSSPPVVFGGGTKVEIK | 8.9 | 11.5 | 9.4 |  |  |  |  |
| AX137 Fab (Fab, V domains shown) VH: EVQLLESGGGLVQPGGSLRLSCKASGYTFSSYGMYWVRQAPGKGLEWIGWIDPGSGGTKYNEKFKGKATISRDNSKNTLYLQMNSLRAEDTAVYYCARERYGYYFDYWGQGTLVTVSS VL: EIVLTQSPATLSLSPGERATITCRASQYIGSYLNWYQQKPGQAPRLLIYDASNRATGIPARFSGSGSGTDFTLTISSLEPEDFAVYYCQAWDSSPPVVFGGGTKVEIK |  |  |  |  |  |  | Fab IC50 (nM), inhibition of PCSK9 on LDL uptake (human PCSK9 [6]): 74.4 nM; Fab IC50 (nM), inhibition of PCSK9 on LDL uptake (murine PCSK9 [7]): 27.4 nM |
| AX139 Fab (Fab, V domains shown) VH: EVQLLESGGGLVQPGGSLRLSCKASGYTFSSYGMYWVRQAPGKGLEWIGWIDPGSGGTKYNEKFKGKATISRDNSKNTLYLQMNSLRAEDTAVYYCARERYGYYFDYWGQGTLVTVSS VL: EIVLTQSPATLSLSPGERATITCRASQYVGSYLNWYQQKPGQAPRLLIYDAANRATGIPARFSGSGSGTDFTLTISSLEPEDFAVYYCQVWDSSPPVVFGGGTKVEIK |  |  |  |  |  |  | Fab IC50 (nM), inhibition of PCSK9 on LDL uptake (human PCSK9 [6]): 37.7 nM; Fab IC50 (nM), inhibition of PCSK9 on LDL uptake (murine PCSK9 [7]): 22.9 nM |
| AX114 Fab (Fab, V domains shown) VH: EVQLLESGGGLVQPGGSLRLSCKASGYTFSSYGMYWVRQAPGKGLEWIGWIDPGSGGTKYNEKFKGKATISRDNSKNTLYLQMNSLRAEDTAVYYCARERYGYYFDYWGQGTLVTVSS VL: EIVLTQSPATLSLSPGERATITCRASQYVGTYLNWYQQKPGQAPRLLIYDASNRATGIPARFSGSGSGTDFTLTISSLEPEDFAVYYCQVWDSSPPVAFGGGTKVEIK |  |  |  |  |  |  | Fab IC50 (nM), inhibition of PCSK9 on LDL uptake (human PCSK9 [6]): 179 nM; Fab IC50 (nM), inhibition of PCSK9 on LDL uptake (rhesus PCSK9 [8]): 194 nM; Fab IC50 (nM), inhibition of PCSK9 on LDL uptake (murine PCSK9 [7]): 326 nM |
| AX210 IgG2 (antibody, V domains shown) VH: QVQLLESGGGLVQPGGSLRLSCKASGYTFSSYSIYWVRQAPGKGLEWIGWIDPGNGGTRYNQKFQSKATISRDNSKNTLYLQMNSLRAEDTAVYYCARARVGYSLDYWGQGTLVTVSS VL: EIVLTQSPATLSLSPGERATITCRASQYVGSYLNWYQQKPGQAPRLLIYDASNRATGIPARFSGSGSGTDFTLTISSLEPEDFAVYYCQVWDSSPPVVFGGGTKVEIK [AX210 IgG2, listing 2 of 2 here] |  |  |  | 2.64 | 0.944 | 3.6 |  |
| AX132 Fab (Fab, V domains shown) VH: EVQLLESGGGLVQPGGSLRLSCKASGYTFSSYGMYWVRQAPGKGLEWIGWIDPGSGGTKYNEKFKGKATISRDNSKNTLYLQMNSLRAEDTAVYYCARERYGYYFDYWGQGTLVTVSS VL: EIVLTQSPATLSLSPGERATITCRASQYVGSYLNWYQQKPGQAPRLLIYDASNRATGIPARFSGSGSGTDFTLTISSLEPEDFAVYYCQVWDSSPPVVFGGGTKVEIKR |  |  |  |  |  |  | Fab IC50 (nM), inhibition of PCSK9 on LDL uptake (human PCSK9 [6]): 62.2 nM; Fab IC50 (nM), inhibition of PCSK9 on LDL uptake (murine PCSK9 [7]): 26.9 nM |

More lines, main results first:

| IgG2 IC50 (nM), inhibition of PCSK9 (LDL uptake assay) (human PCSK9 [1]) [nM] | IgG2 IC50 (nM), inhibition of PCSK9 (LDL uptake assay) (rhesus PCSK9 [2]) [nM] | IgG2 IC50 (nM), inhibition of PCSK9 (LDL uptake assay) (murine PCSK9 [3]) [nM] | Kd (human PCSK9 [4]) [nM] | Kd (Rhesus PCSK9 [5]) [nM] | Kd (Mouse PCSK9) [nM] | Binder | other results |
| --- | --- | --- | --- | --- | --- | --- | --- |
| 9.5 | 4.7 | 7.3 |  |  |  | AX212 IgG2 (antibody, V domains shown) VH: QVQLLESGGGLVQPGGSLRLSCKASGYTFSSYSFSWVRQAPGKGLEWIGYIDPGSGGTKYNQKFQGKATISRDNSKNTLYLQMNSLRAEDTAVYYCARQRVGYSLDYWGQGTLVTVSS VL: EIVLTQSPATLSLSPGERATITCRASQYVGSYLNWYQQKPGQAPRLLIYDASNRATGIPARFSGSGSGTDFTLTISSLEPEDFAVYYCQVWDSSPPVVFGGGTKVEIK [AX212 IgG2, listing 1 of 2 here] |  |
| 6.5 | 9.7 | 15.9 |  |  |  | AX210 IgG2 (antibody, V domains shown) VH: QVQLLESGGGLVQPGGSLRLSCKASGYTFSSYSIYWVRQAPGKGLEWIGWIDPGNGGTRYNQKFQSKATISRDNSKNTLYLQMNSLRAEDTAVYYCARARVGYSLDYWGQGTLVTVSS VL: EIVLTQSPATLSLSPGERATITCRASQYVGSYLNWYQQKPGQAPRLLIYDASNRATGIPARFSGSGSGTDFTLTISSLEPEDFAVYYCQVWDSSPPVVFGGGTKVEIK [AX210 IgG2, listing 1 of 2 here] |  |
| 7.5 | 4.4 | 11.1 |  |  |  | AX211 IgG2 (antibody, V domains shown) VH: QVQLLESGGGLVQPGGSLRLSCKASGYTFSRQGFTWVRQAPGKGLEWIGWIDPGNGGTRYNEKFKGKATISRDNSKNTLYLQMNSLRAEDTAVYYCARYRVGYSLDYWGQGTLVTVSS VL: EIVLTQSPATLSLSPGERATITCRASQYVGSYLNWYQQKPGQAPRLLIYDASNRATGIPARFSGSGSGTDFTLTISSLEPEDFAVYYCQVWDSSPPVVFGGGTKVEIK [AX211 IgG2, listing 1 of 2 here] |  |
| 9.8 | 10 | 5.3 |  |  |  | AX137 IgG2 (antibody, V domains shown) VH: EVQLLESGGGLVQPGGSLRLSCKASGYTFSSYGMYWVRQAPGKGLEWIGWIDPGSGGTKYNEKFKGKATISRDNSKNTLYLQMNSLRAEDTAVYYCARERYGYYFDYWGQGTLVTVSS VL: EIVLTQSPATLSLSPGERATITCRASQYIGSYLNWYQQKPGQAPRLLIYDASNRATGIPARFSGSGSGTDFTLTISSLEPEDFAVYYCQAWDSSPPVVFGGGTKVEIK |  |
|  |  |  | 2.12 | 0.774 | 2.74 | AX212 IgG2 (antibody, V domains shown) VH: QVQLLESGGGLVQPGGSLRLSCKASGYTFSSYSFSWVRQAPGKGLEWIGYIDPGSGGTKYNQKFQGKATISRDNSKNTLYLQMNSLRAEDTAVYYCARQRVGYSLDYWGQGTLVTVSS VL: EIVLTQSPATLSLSPGERATITCRASQYVGSYLNWYQQKPGQAPRLLIYDASNRATGIPARFSGSGSGTDFTLTISSLEPEDFAVYYCQVWDSSPPVVFGGGTKVEIK [AX212 IgG2, listing 2 of 2 here] |  |
|  |  |  | 1.63 | 0.493 | 1.66 | AX211 IgG2 (antibody, V domains shown) VH: QVQLLESGGGLVQPGGSLRLSCKASGYTFSRQGFTWVRQAPGKGLEWIGWIDPGNGGTRYNEKFKGKATISRDNSKNTLYLQMNSLRAEDTAVYYCARYRVGYSLDYWGQGTLVTVSS VL: EIVLTQSPATLSLSPGERATITCRASQYVGSYLNWYQQKPGQAPRLLIYDASNRATGIPARFSGSGSGTDFTLTISSLEPEDFAVYYCQVWDSSPPVVFGGGTKVEIK [AX211 IgG2, listing 2 of 2 here] |  |
| 11.1 | 10.2 | 7 |  |  |  | AX213 IgG2 (antibody, V domains shown) VH: EVQLLESGGGLVQPGGSLRLSCKASGYTFSRYGINWVRQAPGKGLEWIGRIDPGNGGTRYNEKFKGKATISRDNSKNTLYLQMNSLRAEDTAVYYCARANDGYSFDYWGQGTLVTVSS VL: EIVLTQSPATLSLSPGERATITCRASQYVGSYLNWYQQKPGQAPRLLIYDASNRATGIPARFSGSGSGTDFTLTISSLEPEDFAVYYCQVWDSSPPVVFGGGTKVEIKR [AX213 IgG2, listing 1 of 2 here] |  |
|  |  |  | 2.07 | 1.89 | 3.25 | AX213 IgG2 (antibody, V domains shown) VH: EVQLLESGGGLVQPGGSLRLSCKASGYTFSRYGINWVRQAPGKGLEWIGRIDPGNGGTRYNEKFKGKATISRDNSKNTLYLQMNSLRAEDTAVYYCARANDGYSFDYWGQGTLVTVSS VL: EIVLTQSPATLSLSPGERATITCRASQYVGSYLNWYQQKPGQAPRLLIYDASNRATGIPARFSGSGSGTDFTLTISSLEPEDFAVYYCQVWDSSPPVVFGGGTKVEIKR [AX213 IgG2, listing 2 of 2 here] |  |
